Data as given in patent publication US20240084044A1, “Heteromultivalent Nucleic Acid Scaffolds and Uses Thereof” (George Mason University, priority 2022, published 2024).
Each block holds one molecule with its values, some of them ahead of it. Bridges are numbered along the chain shown (N, C = ends). Roman numbers before positions name the chains, in order. [ ]: non-standard residue; d: D form. Lys(N3) = [N-]=[N+]=NCCCC[C@H](N)C(=O)O

Key:
[1] = target: ST2/IL-33 binary complex (recombinant FLAG-tagged ST2 extracellular domain with recombinant mature IL-33) (UniProt Q01638); experiment: SPR (OpenSPR), FLAG-ST2 captured on anti-FLAG mAb and loaded with 50 nM IL-33, IL1RAcP as analyte, 1:1 fit; native IL-1RAcP as analyte
[2] = target: T1, ST2/IL-33 binary complex (Homo sapiens, UniProt O95760+Q01638); experiment: SPR dissociation constant for the ST2/IL-33 binary complex; assay type: binding; settings: SPR, 1:1 fit; read-out: KD to the binary ST2/IL-33 complex
T1 construct: included the extracellular domains, K19-F328 and S21-E359, respectively; the cleaved mature proteins, S112-T270, A117-S269, and R2-S310, respectively; purchased Sino Biologicals ST2 10105-HCCH; IL-33 10368-HNAE; host or cells: ST2: HEK293; IL-33: E. coli
T1 sequence (Q01638 19-328 isoform Q01638-2): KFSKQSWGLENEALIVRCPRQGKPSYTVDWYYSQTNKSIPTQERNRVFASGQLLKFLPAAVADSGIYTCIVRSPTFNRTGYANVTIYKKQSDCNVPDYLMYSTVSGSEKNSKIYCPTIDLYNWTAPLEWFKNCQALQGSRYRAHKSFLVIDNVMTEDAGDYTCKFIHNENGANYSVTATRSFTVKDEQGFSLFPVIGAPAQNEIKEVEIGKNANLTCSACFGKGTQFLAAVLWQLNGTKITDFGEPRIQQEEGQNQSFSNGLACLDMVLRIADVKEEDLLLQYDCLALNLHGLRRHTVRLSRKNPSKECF
T1 sequence (O95760 112-270): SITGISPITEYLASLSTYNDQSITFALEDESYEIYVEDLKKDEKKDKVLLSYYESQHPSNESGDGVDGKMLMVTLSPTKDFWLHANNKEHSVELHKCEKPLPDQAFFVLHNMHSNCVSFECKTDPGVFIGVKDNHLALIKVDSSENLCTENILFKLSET
Text: Recombinant ST2 with truncated FLAG (DDDDK) tag (Cat. #10105-HCCH), His-tagged IL1RAcP (Cat. #10121-H08H), IL-33 (Cat. #10368-HNAE), IL-1β (Cat. #10139-HNAE), and FLAG-tagged SIRT5 (Cat. #19202-H22E) were purchased from Sino Biologicals (Wayne, PA). ST2 and IL1RAcP were expressed in HEK293 cells and included the extracellular domains, K19-F328 and S21-E359, respectively. IL-33, IL-1β, and SIRT5 were expressed in E. coli and included the residue sequence of the cleaved mature proteins, S112-T270, A117-S269, and R2-S310, respectively. Lyophilized ST2, and IL1RAcP were reconstituted in ultrapure (18.5 MΩ) water to a concentration of 0.5 mg/mL (5.6 μM) and stored at −80° C. until use. SIRT5 was reconstituted to 0.2 mg/mL (2.87 μM). To prevent oxidation, IL-33 was reconstituted in 10 mM β-mercaptoethanol (Sigma-Aldrich) to a concentration of 0.1 mg/mL and IL-1β was reconstituted to 0.250 mg/mL. All peptides were purchased from Peptide 2.0 (Chantilly, VA) and designed based on IL1RAcP hotspot residues known to interact with IL-33/ST2 and surrounding residues based on the canonical sequence of IL1RAcP (Uniprot #Q9NPH3). All peptides were modified with acetylated N-terms and amidated C-terms to optimize stability and cyclic peptides cyclized via thioether or disulfide bond. Candidate peptides for the final molecule were also modified with an azido-Lysine and additional N-term alanine or cysteine, to provide the azide group for copper free click chemistry and maintain cyclization. Peptides were stored at −20° C. in lyophilized aliquots of 100 μg or 200 μg and −80° C. after reconstitution in sterile DMSO to a concentration of 10 mM.
SPR experiments were carried out on an OpenSPR instrument (Nicoya). Gold nanoparticle sensor chips (Nicoya) were functionalized by incubation in a solution of ethanol and 10 mM 11-Mercaptoundecanoic acid (MUDA) at RT for a minimum of 48 h, then stored in ethanol at 4° C. until use. Chips were activated with a solution of 200 mM EDC and 50 mM NHS for 3 m at RT. […] Data was analyzed with TraceDrawer software to a 1:1 fit model.

[3] = target: T2, ST2 (Homo sapiens, UniProt Q01638); settings: reported value; read-out: Kd of ST2/IL-33 binary complex; cited from earlier work
T2 sequence (Q01638 19-556): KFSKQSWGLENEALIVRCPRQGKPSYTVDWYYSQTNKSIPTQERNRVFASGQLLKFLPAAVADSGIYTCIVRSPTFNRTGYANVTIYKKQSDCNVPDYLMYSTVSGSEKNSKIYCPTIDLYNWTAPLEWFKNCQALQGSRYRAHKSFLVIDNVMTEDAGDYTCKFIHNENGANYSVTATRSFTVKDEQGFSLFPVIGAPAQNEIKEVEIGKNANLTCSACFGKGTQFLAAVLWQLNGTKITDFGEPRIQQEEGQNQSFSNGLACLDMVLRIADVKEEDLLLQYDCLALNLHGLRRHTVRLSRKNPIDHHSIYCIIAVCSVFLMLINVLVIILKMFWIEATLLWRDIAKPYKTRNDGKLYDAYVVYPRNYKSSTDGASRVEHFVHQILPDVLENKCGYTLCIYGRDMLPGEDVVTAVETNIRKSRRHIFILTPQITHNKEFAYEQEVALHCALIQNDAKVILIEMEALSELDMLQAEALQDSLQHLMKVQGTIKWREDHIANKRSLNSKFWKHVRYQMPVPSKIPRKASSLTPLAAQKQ

[4] = target: ST2/IL-33 binary complex (recombinant FLAG-tagged ST2 extracellular domain with recombinant mature IL-33) (UniProt Q01638); experiment: SPR (OpenSPR): FLAG-ST2 captured on anti-FLAG mAb and loaded with IL-33, peptide as analyte, 1:1 fit; five sensorgrams, the highest to about 350 RU
[5] = target: ST2/IL-33 binary complex (recombinant FLAG-tagged ST2 extracellular domain with recombinant mature IL-33) (UniProt Q01638); experiment: SPR (OpenSPR): FLAG-ST2 captured on anti-FLAG mAb and loaded with IL-33, peptide as analyte, 1:1 fit; five sensorgrams, the highest to about 390 RU
[6] = target: ST2/IL-33 binary complex (recombinant FLAG-tagged ST2 extracellular domain with recombinant mature IL-33) (UniProt Q01638); experiment: DSS cross-linking and western blot, 100 nM MSTOP compared with 10 µM free WT peptides, competitor IL-1RAcP
[7] = target: T3, IL-33/ST2 on HEK-Blue IL-33 reporter cells (recombinant IL-33 with ST2 stably expressed on the cells), Q01638; experiment: cell-based or functional assay
T3 chain 1: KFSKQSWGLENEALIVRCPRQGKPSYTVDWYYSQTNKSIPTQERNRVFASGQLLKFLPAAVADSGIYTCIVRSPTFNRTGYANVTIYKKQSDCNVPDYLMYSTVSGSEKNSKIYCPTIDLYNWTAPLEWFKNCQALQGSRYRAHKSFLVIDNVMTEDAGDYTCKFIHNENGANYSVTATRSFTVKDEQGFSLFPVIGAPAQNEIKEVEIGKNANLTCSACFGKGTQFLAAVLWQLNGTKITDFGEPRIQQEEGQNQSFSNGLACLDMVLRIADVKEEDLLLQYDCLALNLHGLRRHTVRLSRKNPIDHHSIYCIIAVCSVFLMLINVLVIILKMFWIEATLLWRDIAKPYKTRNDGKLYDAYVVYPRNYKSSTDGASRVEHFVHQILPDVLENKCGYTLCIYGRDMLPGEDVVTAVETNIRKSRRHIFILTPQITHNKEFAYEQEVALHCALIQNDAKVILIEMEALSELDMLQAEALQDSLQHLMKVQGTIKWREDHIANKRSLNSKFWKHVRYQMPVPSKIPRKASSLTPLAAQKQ
T3 chain 2: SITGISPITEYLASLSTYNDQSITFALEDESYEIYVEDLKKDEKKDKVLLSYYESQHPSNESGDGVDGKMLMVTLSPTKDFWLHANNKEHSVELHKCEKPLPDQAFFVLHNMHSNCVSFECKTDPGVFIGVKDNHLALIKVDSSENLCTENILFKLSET

[8] = target: ST2/IL-33 binary complex (recombinant FLAG-tagged ST2 extracellular domain with recombinant mature IL-33) (UniProt Q01638); experiment: DSS cross-linking and western blot, 1 µM MSTOP, competitor IL-1RAcP
[9] = target: ST2/IL-33 binary complex (recombinant FLAG-tagged ST2 extracellular domain with recombinant mature IL-33) (UniProt Q01638); experiment: SPR (OpenSPR): FLAG-ST2 captured on anti-FLAG mAb and loaded with IL-33, MSTOP as analyte, 1:1 fit; sensorgrams to about 620 RU. The text gives 195 nM.
[10] = target: ST2/IL-33 binary complex (recombinant FLAG-tagged ST2 extracellular domain with recombinant mature IL-33) (UniProt Q01638); experiment: DSS cross-linking and western blot, 10 µM MSTOP, competitor IL-1RAcP, normalised to the untreated trimer control
[11] = target: ST2/IL-33 binary complex (recombinant FLAG-tagged ST2 extracellular domain with recombinant mature IL-33) (UniProt Q01638); experiment: SPR (OpenSPR), FLAG-ST2 captured on anti-FLAG mAb and loaded with IL-33, MSTOP as analyte, 1:1 fit; MSTOP as analyte
[12] = target: ST2/IL-33 binary complex (recombinant FLAG-tagged ST2 extracellular domain with recombinant mature IL-33) (UniProt Q01638); experiment: SPR (OpenSPR), KD compared
[13] = target: ST2/IL-33 binary complex (recombinant FLAG-tagged ST2 extracellular domain with recombinant mature IL-33) (UniProt Q01638); experiment: SPR (OpenSPR): FLAG-ST2 captured on anti-FLAG mAb and loaded with IL-33, peptide as analyte, 1:1 fit; five sensorgrams, the highest to about 300 RU

B1: IL-33: recombinant interleukin-33 cytokine, ligand of ST2 (protein, UniProt O95760 1-270, looked up)
Interleukin-33: MKPKMKYSTNKISTAKWKNTASKALCFKLGKSQQKAKEVCPMYFMKLRSGLMIKKEACYFRRETTKRPSLKTGRKHKRHLVLAACQQQSTVECFAFGISGVQKYTRALHDSSITGISPITEYLASLSTYNDQSITFALEDESYEIYVEDLKKDEKKDKVLLSYYESQHPSNESGDGVDGKMLMVTLSPTKDFWLHANNKEHSVELHKCEKPLPDQAFFVLHNMHSNCVSFECKTDPGVFIGVKDNHLALIKVDSSENLCTENILFKLSET
Kd [3]: 0.026 nM

B3: K343/K346 Ac-C-K(N3)-…-NH2 (S-S) (peptide)
peptide: Ac-C[Lys(N3)]GEVAKAAKVKC-NH2
modifications: disulfide 1-13
SMILES: CC(=O)N[C@H]1CSSC[C@@H](C(N)=O)NC(=O)[C@H](CCCCN)NC(=O)[C@H](C(C)C)NC(=O)[C@H](CCCCN)NC(=O)[C@H](C)NC(=O)[C@H](C)NC(=O)[C@H](CCCCN)NC(=O)[C@H](C)NC(=O)[C@H](C(C)C)NC(=O)[C@H](CCC(=O)O)NC(=O)CNC(=O)[C@H](CCCCN=[N+]=[N-])NC1=O
Kd [5]: 47 µM

B4: MSTOP prototype (Multivalent Specific Topology-targeting DNA-Origami Peptide Inhibitor): 3-way junction DNA scaffold carrying three cyclized azidolysine … (designed binder)
peptide 1: Ac-CKEYGIQRITC-NH2
peptide 2: Ac-AKVGSPKNAVPPC-NH2
peptide 3: Ac-CKGEVAKAAKVKC-NH2
modifications: disulfide I:1-I:11, III:1-III:13; thioether II:1-II:13; not fully specified (some residues); also: three peptides held on a 3-way junction DNA scaffold via DBCO staple strands
fold increase in efficiency against the 10 µM WT peptide treatment [6]: 100 fold | IL-33 induced SEAP expression (HEK-Blue IL-33 reporter cells, 1 µM MSTOP) [7]: 40 % reduction | reduction of trimer formation [8]: 40% | Kd [9]: 0.127 µM | reduction in trimer formation [10]: 70% | Kd [11]: 0.195 µM | fold increase in affinity compared to the individual peptides and IL-1RAcP [12]: 100 fold

Continued, values first:

Kd [1]: 10 µM
Molecule: His-tagged IL1RAcP extracellular domain (S21-E359) (from UniProt Q9NPH3 21-359) (receptor)

Kd [2]: 10 µM
Molecule: IL-1RAcP: recombinant His-tagged IL-1 receptor accessory protein extracellular domain S21-E359

Kd [4]: 105 µM
B2: K238 Ac-A-K(N3)-…-NH2 (S) (peptide)
peptide: Ac-A[Lys(N3)]VGSPKNAVPPC-NH2
modifications: thioether 1-13
SMILES: CC(=O)N[C@H]1CSC[C@@H](C(N)=O)NC(=O)[C@@H]2CCCN2C(=O)[C@@H]2CCCN2C(=O)[C@H](C(C)C)NC(=O)[C@H](C)NC(=O)[C@H](CC(N)=O)NC(=O)[C@H](CCCCN)NC(=O)[C@@H]2CCCN2C(=O)[C@H](CO)NC(=O)CNC(=O)[C@H](C(C)C)NC(=O)[C@H](CCCCN=[N+]=[N-])NC1=O

Kd [13]: 57 µM
B5: R157 Ac-C-K(N3)-…-NH2 (S-S) (peptide)
peptide: Ac-C[Lys(N3)]EYGIQRITC-NH2
modifications: disulfide 1-11
SMILES: CC[C@H](C)[C@@H]1NC(=O)CNC(=O)[C@H](Cc2ccc(O)cc2)NC(=O)[C@H](CCC(=O)O)NC(=O)[C@H](CCCCN=[N+]=[N-])NC(=O)[C@@H](NC(C)=O)CSSC[C@@H](C(N)=O)NC(=O)[C@H]([C@@H](C)O)NC(=O)[C@H]([C@@H](C)CC)NC(=O)[C@H](CCCNC(=N)N)NC(=O)[C@H](CCC(N)=O)NC1=O
